Values of other authors in publication PMC7114193.

Target: ACE2 (Homo sapiens) (UniProt Q9BYF1)
Sequence (Q9BYF1 18-740): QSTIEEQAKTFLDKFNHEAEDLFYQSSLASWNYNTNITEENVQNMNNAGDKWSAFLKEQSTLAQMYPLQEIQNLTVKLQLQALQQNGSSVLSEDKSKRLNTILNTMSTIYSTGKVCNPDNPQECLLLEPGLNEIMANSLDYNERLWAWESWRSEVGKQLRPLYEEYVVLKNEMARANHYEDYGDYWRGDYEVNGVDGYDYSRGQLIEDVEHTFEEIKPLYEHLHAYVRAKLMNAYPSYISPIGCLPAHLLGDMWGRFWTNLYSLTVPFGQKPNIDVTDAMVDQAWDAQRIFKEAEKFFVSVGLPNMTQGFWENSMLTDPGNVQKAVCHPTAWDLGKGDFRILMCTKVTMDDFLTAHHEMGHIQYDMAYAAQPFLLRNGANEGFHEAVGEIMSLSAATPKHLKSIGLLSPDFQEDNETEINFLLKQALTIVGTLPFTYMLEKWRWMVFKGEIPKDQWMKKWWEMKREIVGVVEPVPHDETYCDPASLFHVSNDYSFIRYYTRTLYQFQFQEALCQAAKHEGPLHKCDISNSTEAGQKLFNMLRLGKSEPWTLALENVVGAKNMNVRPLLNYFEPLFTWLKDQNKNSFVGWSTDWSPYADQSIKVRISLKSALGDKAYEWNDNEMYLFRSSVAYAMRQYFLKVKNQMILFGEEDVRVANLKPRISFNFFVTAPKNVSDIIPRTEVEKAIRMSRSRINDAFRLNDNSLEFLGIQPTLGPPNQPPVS

Substance: RBD-Fc 318-510 (from UniProt P59594)
- Kd: 10 nM
